Measured values: publication PMC12062221

Key:
[1] = target: fluorescently labeled human H2a(G129C)-H2b dimer (human) (UniProt P04908); experiment: MST
[2] = target: human histone (H3-H4)2 tetramer (human) (UniProt P68431); experiment: MST

αSyn(1-131) (from UniProt P37840 1-131) (domain or fragment)
Kd [1]: 32400 nM

αSyn(1-103) (from UniProt P37840 1-103) (domain or fragment)
Kd [2]: 107 nM

αSyn(121-140) peptide (from UniProt P37840 121-140)
KD of one of two binding sites [1]: 500 nM
KD of the other of two binding sites [1]: 2600 nM
